The results in this text go back to publication PMC11557686.

The chains are these.
B1: SmBiT-SEC24A [not stated] / LgBiT-SURF4 [not stated] (parent)
chain 1: MSQPGIPASGGAPASLQAQNGAALASGSPYTNGPVQNALLSSQESVSQGYNFQLPGSYPHPIPAKTLNPVSGQSNYGGSQGSGQTLNRPPVASNPVTPSLHSGPAPRMPLPASQNPATTPMPSSSFLPEANLPPPLNWQYNYPSTASQTNHCPRASSQPTVSGNTSLTTNHQYVSSGYPSLQNSFIKSGPSVPPLVNPPLPTTFQPGAPHGPPPAGGPPPVRALTPLTSSYRDVPQPLFNSAVNQEGITSNTNNGSMVVHSSYDEIEGGGLLATPQLTNKNPKMSRSVGYSYPSLPPGYQNTTPPGATGVPPSSLNYPSGPQAFTQTPLGANHLTTSMSGLSLQPEGLRVVNLLQERNMLPSTPLKPPVPNLHEDIQKLNCNPELFRCTLTSIPQTQALLNKAKLPLGLLLHPFKDLVQLPVVTSSTIVRCRSCRTYINPFVSFLDQRRWKCNLCYRVNDVPEEFLYNPLTRVYGEPHRRPEVQNATIEFMAPSEYMLRPPQPPVYLFVFDVSHNAVETGYLNSVCQSLLDNLDLLPGNTRTKIGFITFDSTIHFYGLQESLSQPQMLIVSDIEDVFIPMPENLLVNLNESKELVQDLLKTLPQMFTKTLETQSALGPALQAAFKLMSPTGGRMSVFQTQLPTLGVGALKPREEPNHRSSAKDIHMTPSTDFYKKLALDCSGQQVAVDLFLLSGQYSDLASLGCISRYSAGSVYYYPSYHHQHNPVQVQKLQKELQRYLTRKIGFEAVMRIRCTKGLSIHTFHGNFFVRSTDLLSLPNVNPDAGYAVQMSVEESLTDTQLVSFQSALLYTSSKGERRIRVHTLCLPVVSTLNDVFLGADVQAISGLLANMAVDRSMTASLSDARDALVNAVIDSLSAYRSSVLSNQQPGLMVPFSLRLFPLFVLALLKQKSFQTGTNARLDERIFAMCQVKNQPLVYLMLTTHPSLYRVDNLSDEGALNISDRTIPQPPILQLSVEKLSRDGAFLMDAGSVLMLWVGKNCTQNFLSQVLGVQNYASIPQPMTDLPELDTPESARIIAFISWLREQRPFFPILYVIRDESPMKANFLQNMIEDRTESALSYYEFLLHIQQQVNK
chain 2: MGQNDLMGTAEDFADQFLRVTKQYLPHVARLCLISTFLEDGIRMWFQWSEQRDYIDTTWNCGYLLASSFVFLNLLGQLTGCVLVLSRNFVQYACFGLFGIIALQTIAYSILWDLKFLMRNLALGGGLLLLLAESRSEGKSMFAGVPTMRESSPKQYMQLGGRVLLVLMFMTLLHFDASFFSIVQNIVGTALMILVAIGFKTKLAALTLVVWLFAINVYFNAFWTIPVYKPMHDFLKYDFFQTMSVIGGLLLVVALGPGGVSMDEKKKEW

In the test the parent is B1. Nature of the test: NanoBiT. The settings on record: with LgBiT-SURF4; six technical replicates in each of three independent biological replicates; parent: 1; read off a plot.
With chain 1 R750A R752A, the ratio to parent came out at 0.5.
Regarding chain 1 R541A, the ratio to parent came out at 1.
For the variant chain 1 Y437A, the ratio to parent was 0.62.
As for chain 1 K813A, the ratio to parent was 0.98.
